For assay [1], the target named is T1, anti-CD19 CAR SEQ ID NO: 8.
T1 construct: also called anti-CD19 CAR T cells
Put plainly: flow cytometry on anti-CD19 CAR T cells, antibody at fold dilutions 100 to 12800, % CAR positive cells. As to the method:
(§1) The purified 20H05-02D09 antibody was analyzed by flow cytometry for binding to CAR T cells expressing the anti-CD70 CAR of SEQ ID NO: 6 (anti-CD70 CAR T cells). CAR T cells expressing an anti-BCMA CAR of SEQ ID NO: 7 (anti-BCMA CAR T cells) or an anti-CD19 CAR SEQ ID NO: 8 (anti-CD19 CAR T cells) were used as negative controls. Anti-CD70-scFv antibody (20H05-02D09) was analyzed at various dilutions (FIG. 2).

In assay [2] the target is T2, anti-CD70 CAR of SEQ ID NO: 6.
T2 construct: also called anti-CD70 CAR T cells; anti-CD70 chimeric antigen receptor
Description: flow cytometry, antibody dilution 1:100, cell population with about 65.4% anti-CD70 CAR+ cells.

The target is the same in assay [3]. Description: flow cytometry, antibody dilution 1:50, cell population with about 65.4% anti-CD70 CAR+ cells.
In assay [4] the target is T3, anti-BCMA CAR of SEQ ID NO: 7.
T3 construct: also called anti-BCMA CAR T cells
Put plainly: flow cytometry on anti-BCMA CAR T cells, antibody at fold dilutions 100 to 12800, % CAR positive cells. Here is the method:
as §1

For assay [5], the target named is T2, anti-CD70 CAR of SEQ ID NO: 6. Description: flow cytometry, antibody dilution 1:200, cell population with about 65.4% anti-CD70 CAR+ cells.
For assay [6] the target is unchanged. Description: flow cytometry, antibody dilution 1:6400, cell population with about 65.4% anti-CD70 CAR+ cells.
Assay [7] shares this target. Description: flow cytometry, antibody dilution 1:800, cell population with about 65.4% anti-CD70 CAR+ cells.
Assay [8] shares this target. Description: flow cytometry, antibody dilution 1:400, cell population with about 65.4% anti-CD70 CAR+ cells.
The target is the same in assay [9]. Put plainly: flow cytometry, antibody dilution 1:3200, cell population with about 65.4% anti-CD70 CAR+ cells.
Assay [10] shares this target. Put plainly: flow cytometry, antibody dilution 1:1600, cell population with about 65.4% anti-CD70 CAR+ cells.

T2 sequence (chain, as listed by the source limits assumed): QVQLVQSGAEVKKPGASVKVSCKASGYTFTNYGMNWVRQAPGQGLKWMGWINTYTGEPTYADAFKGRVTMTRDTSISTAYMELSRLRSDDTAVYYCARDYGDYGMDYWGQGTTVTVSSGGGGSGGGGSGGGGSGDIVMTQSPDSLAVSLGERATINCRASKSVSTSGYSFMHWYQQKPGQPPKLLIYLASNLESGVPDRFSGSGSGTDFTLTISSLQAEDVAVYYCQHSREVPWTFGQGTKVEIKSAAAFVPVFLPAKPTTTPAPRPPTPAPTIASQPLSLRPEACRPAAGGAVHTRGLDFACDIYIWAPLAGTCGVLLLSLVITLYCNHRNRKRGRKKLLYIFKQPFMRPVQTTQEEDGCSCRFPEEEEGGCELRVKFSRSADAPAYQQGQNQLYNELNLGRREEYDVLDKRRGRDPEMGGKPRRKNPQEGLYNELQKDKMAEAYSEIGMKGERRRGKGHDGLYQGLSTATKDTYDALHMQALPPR
T3 sequence (chain, as listed by the source limits assumed): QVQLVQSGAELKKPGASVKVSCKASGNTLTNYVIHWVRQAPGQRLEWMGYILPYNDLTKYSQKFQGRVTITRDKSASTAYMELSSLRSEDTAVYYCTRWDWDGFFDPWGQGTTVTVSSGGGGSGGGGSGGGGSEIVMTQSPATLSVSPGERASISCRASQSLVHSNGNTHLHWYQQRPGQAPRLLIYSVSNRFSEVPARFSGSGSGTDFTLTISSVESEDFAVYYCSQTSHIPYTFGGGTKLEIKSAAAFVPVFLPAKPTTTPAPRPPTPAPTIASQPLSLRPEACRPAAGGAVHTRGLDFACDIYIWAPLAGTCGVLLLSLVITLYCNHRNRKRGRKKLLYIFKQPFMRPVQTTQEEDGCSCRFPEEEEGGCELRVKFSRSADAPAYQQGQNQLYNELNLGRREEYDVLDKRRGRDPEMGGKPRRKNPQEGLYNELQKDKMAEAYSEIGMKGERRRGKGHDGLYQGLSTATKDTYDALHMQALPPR

B1: mouse anti-CD70-scFv monoclonal antibody 20H05-02D09 (antibody, mouse IgG1, kappa, V domains shown)
VH: QIQLVQSGPELKKPGETVKISCKASGYTFTNYGMHWVKQAPGKVLKWMGWINTYSGVPTYPDDFKGRFAFSLETSASTASLQINNLKNEDTATYFCATERLRGWFPFWGQGTLVTVSA
VL: QIVLTQSPAIMSASPGEKVTISCSASSSVSYMYWYQQKPGSSPKPWIYRTSNLASGVPARFSGSGSGTSYSLTISSMEAEDAATYYCQQYHSYPPTFGGGTKLEIKR
notes: also called 20H05-2D09; native 20H05-2D09
Consider B1, for which the binding result in assay [1] and in [4] was “no binding” each time. For the same molecule, the “percentage of anti-CD70 CAR+ cells” value is 67.5% in assay [2]; 67.7% in [3]; 68.3% in [5]; 66.5% in assay [6]; 66.5% in [7]; 67.2% in [8]. Further, the entries for the “percentage of anti-CD70 CAR+ cells” value in [9] and in assay [10] were 67.8% and 65.4%, respectively.

B2: biotin conjugated 20H05 (antibody, mouse IgG1, kappa, V domains shown)
VH: B1 VH
VL: B1 VL
modifications: conjugated with biotin; site and chain not stated
As for B2, the “percentage of anti-CD70 CAR+ cells” value came out at 65.9% in assay [2]; 66.3% in assay [3]; 67.6% in assay [5]; 65.3% in assay [6]; 67% in [7]; 66.4% in assay [8]. Moreover, the “percentage of anti-CD70 CAR+ cells” value in assay [9] turned out to be 66.2%; in assay [10], 66.4%.

B3: APC conjugated 20H05 (antibody, mouse IgG1, kappa, V domains shown)
VH: B1 VH
VL: B1 VL
modifications: conjugated with APC (allophycocyanin); site and chain not stated
notes: also called direct APC conjugated antibody
Consider B3, for which the “percentage of anti-CD70 CAR+ cells” value is 61.3% in assay [2]; 60.8% in [3]; 61.7% in assay [5]; 62.4% in assay [6]; 61.5% in assay [7]; 61.8% in assay [8]. The “percentage of anti-CD70 CAR+ cells” value is 62.7% in [9] and 61.4% in assay [10].
